Test results as given in patent US20240288446A1, “METHOD FOR DIAGNOSING FIBRINOLYTIC INSUFFICIENCY RELATED TO NEUTROPHIL EXTRACELLULAR TRAPS” (Hôpitaux Universitaires de Strasbourg, priority 2019, published 2024).

Test system: septic shock plasma euglobulin fraction on fibrin-bound tPA
Test: Plasmin formation on tPA-fibrin surfaces from euglobulin fraction of septic shock plasma supplemented with plasminogen
Assay type: biochemical, human
Details: plasminogen normalized to 1.5 μM
Description: FIG. 5 represents the Fibrinolytic activity of plasma isolated from septic shock. The fibrinolytic activity of plasma was tested by incubating the corresponding euglobulin fraction with fibrin surfaces to which tPA (50 iu/ml) was previously bound. The euglobulin fraction contains plasminogen and plasminogen fragments bearing K1, K4 and K5 as identified by mass spectrometry (see text and Supplemental file). The amount of plasmin formed was quantified by measuring the change in absorbance at A405 nm using a chromogenic substrate selective for plasmin as indicated in FIG. 3. […]
Plasminogen was quantified with a functional activity assay as described with modifications.(41) Briefly, plasmas were diluted 1:50 in assay buffer (Phosphate 80 mM, NaCl 50 mM, BSA 2 mg/ml), supplemented with 75 i.u./ml urokinase, 1 mM tranexamic acid and 0.75 mM of the plasmin-selective chromogenic substrate in a final volume of 50 μl. […] Plasminogen fragments present in plasma were initially detected by Western blot as indicated above. […] Plasmin formation on fibrin matrices was measured using the euglobulin fraction from healthy control and patient plasmas as source of plasminogen as indicated above. […] Kinetics of plasminogen transformation into plasmin was followed during 1 h by measuring the release of pNA at A405 nm and the initial velocity of the reactions were calculated as indicated above. […]

B1: purified plasminogen: Human Glu-plasminogen, purified, over 99% pure; 92-kDa single-chain proenzyme (SEQ ID NO 1) (protein, listed as Homo sapiens)
chain: EPLDDYVNTQGASLFSVTKKQLGAGSIEECAAKCEEDEEFTCRAFQYHSKEQQCVIMAENRKSSIIIRMRDVVLFEKKVYLSECKTGNGKNYRGTMSKTKNGITCQKWSSTSPHRPRFSPATHPSEGLEENYCRNPDNDPQGPWCYTTDPEKRYDYCDILECEEECMHCSGENYDGKISKTMSGLECQAWDSQSPHAHGYIPSKFPNKNLKKNYCRNPDRELRPWCFTTDPNKRWELCDIPRCTTPPPSSGPTYQCLKGTGENYRGNVAVTVSGHTCQHWSAQTPHTHNRTPENFPCKNLDENYCRNPDGKRAPWCHTTNSQVRWEYCKIPSCDSSPVSTEQLAPTAPPELTPVVQDCYHGDGQSYRGTSSTTTTGKKCQSWSSMTPHRHQKTPENYPNAGLTMNYCRNPDADKGPWCFTTDPSVRWEYCNLKKCSGTEASVVAPPPVVLLPDVETPSEEDCMFGNGKGYRGKRATTVTGTPCQDWAAQEPHRHSIFTPETNPRAGLEKNYCRNPDGDVGGPWCYTTNPRKLYDYCDVPQCAAPSFDCGKPQVEPKKCPGRVVGGCVAHPHSWPWQVSLRTRFGMHFCGGTLISPEWVLTAAHCLEKSPRPSSYKVILGAHQEVNLEPHVQEIEVSRLFLEPTRKDIALLKLSSPAVITDKVIPACLPSPNYVVADRTECFITGWGETQGTFGAGLLKEAQLPVIENKVCNRYEFLNGRVQSTELCAGHLAGGTDSCQGDSGGPLVCFEKDKYILQGVTSWGLGCARPNKPGVYVRVSRFVTWIEGVMRNN
amount of plasmin formed after plasminogen supplementation (plasma samples S1, S3, S5): increased with a trend to normality
amount of plasmin formed after plasminogen supplementation (plasma samples S2, S4, S6): insufficient or scant response
